This is an account of results in patent CN115819578A (WUHAN ABCLONAL INC, dated 2023).

The target in the assay is T1, 重组人IL-5蛋白 (recombinant Human IL-5, R&D Systems 205-IL-005) (human, UniProt P05113 20-134).
T1 construct: Bought protein; also called 重组human IL-5; His-tag重组human IL-5
T1 sequence (looked up): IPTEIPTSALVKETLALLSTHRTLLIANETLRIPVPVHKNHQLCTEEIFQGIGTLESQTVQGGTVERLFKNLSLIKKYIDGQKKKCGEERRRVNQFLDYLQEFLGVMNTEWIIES
Briefly: BLI (Probe Life Gator), antibody 2 μg/mL on proA probe, recombinant human IL-5 at 150 nM and 70 nM.

B1: 兔单克隆抗体16D2 (anti-human IL-5 rabbit monoclonal antibody 16D2) (antibody, V domains shown)
VH: QEQLEESGGDLVKPEGSLTLTCTASGFSFSINYWICWVRQAPGKGLEWIACIYGGSSGSAYYATWAKGRFTISKTSSTTVTLQMTSLTAADTATYFCARDDEGGGIFYNLWGPGTLVTVSS
VL: AYDMTQTPSSASEPVGGTVTIKCQASEDIYNLLAWYQQKPGQPPKLLIYSASTLASGVPSRFKGSGSGTEYTLTISDLECADAATYYCEQHYTPSNVHNTFGGGTEVVVKG
notes: also called 16D2抗体; 抗人IL-5兔单克隆抗体16D2
For orientation: Kd means the concentration at which binding is half-saturated. As for B1, the Kd was determined as 4.03 nM.

B2: 兔单克隆抗体24A10 (anti-human IL-5 rabbit monoclonal antibody 24A10) (antibody, V domains shown)
VH: QSLEESGGGLVQPEGSLTLTCTASGFSFSSSYYMCWVRQAPGKGLEWIGCIAAGSSGISYYASWAKGRFTISKTSSTTVTLQMTGLTAADTATYLCSRSCDIYSDGGTSFDLWGPGTLVTVSS
VL: DVVMTQTPASVSEPVGGTVTIKCQASQSISSYLAWYQQKPGQPPKLLIYEASKLASGVPSRFKGSGSGTEFTLTISDLECADAATYYCESNYDITSSYFGGGTEVVVKG
notes: in the BLI assays it was unlabelled; also called 24A10抗体; 人IL-5兔单克隆抗体24A10
For B2, the Kd was 0.306 nM.
